This note sets out measurements from patent US20210403538A1.

Bounds are passed on as bounds.

Assay [1] concerns the target BDBV GP [change] (Bundibugyo ebolavirus (BDBV), strain 200706291 Uganda). In words: ELISA, coated recombinant GP ΔTM. For orientation: In an ELISA, binding on a coated surface is turned into a signal by an enzyme label.
For assay [2], the target named is EBOV GP [change] (Zaire ebolavirus (EBOV), strain Makona). Put plainly: ELISA, coated recombinant GP ΔTM.
Assay [3] has as its target MARV GP [change] (Lake Victoria marburgvirus) (UniProt Q1PD50).
Assay [4] deals with SUDV GP [change] (Sudan ebolavirus) (UniProt Q7T9D9).
The target of assay [5] is SUDV GP [change] (Sudan ebolavirus (SUDV), strain Gulu) (UniProt Q7T9D9). In words: ELISA.

One may read the EC50 as the concentration needed to bring the measured effect to its halfway point. 4G7 (antibody): the EC50 in assay [1] was more than 10 µg/mL; in assay [2], 0.018 µg/mL; in assay [3], more than 10 µg/mL; in assay [4] it was more than 10 µg/mL.
For the substance KZ52 (antibody), the EC50 in assay [1] was more than 10 µg/mL; in assay [2], 0.014 µg/mL; in assay [3], more than 10 µg/mL; in assay [4] it was more than 10 µg/mL.
On to rEBOV-520 LALA, for which the 50% effective concentration (EC50) in assay [5] worked out at 0.377 µg/mL.
